# Target: T1, LCAT (purified from human plasma) (Homo sapiens, UniProt P04180)
# T1 construct: The reaction is initiated by addition of LCAT (purified from human plasma); from tissue
# T1 sequence (P04180 25-440): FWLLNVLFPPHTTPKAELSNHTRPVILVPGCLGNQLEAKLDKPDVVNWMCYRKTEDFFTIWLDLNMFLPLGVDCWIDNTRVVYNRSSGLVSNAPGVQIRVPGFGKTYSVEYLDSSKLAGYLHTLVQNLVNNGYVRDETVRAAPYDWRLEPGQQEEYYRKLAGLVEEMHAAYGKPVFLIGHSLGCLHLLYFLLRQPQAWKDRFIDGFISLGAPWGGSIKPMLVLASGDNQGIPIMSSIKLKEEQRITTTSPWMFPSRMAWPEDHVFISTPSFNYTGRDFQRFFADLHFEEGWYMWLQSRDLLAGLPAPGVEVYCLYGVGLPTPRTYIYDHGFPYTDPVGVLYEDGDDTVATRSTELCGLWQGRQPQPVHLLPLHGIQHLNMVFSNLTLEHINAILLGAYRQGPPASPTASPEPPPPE
# Assay: LCAT activation assay
# Type: biochemical
# Settings: LCAT activation as compared with native human ApoA-I (=100%); equivalent masses of peptide or ApoA-I; SUVs of EPC or POPC and radiolabelled cholesterol; listed as peptide 18AM4
# Procedure: The peptides synthesized as described in Section 6, supra, were analyzed in vitro for their ability to activate LCAT. In the LCAT assay, substrate vesicles (small unilamellar vesicles or “SUVs”) composed of egg phophatidylcholine (EPC) or 1-Palmitoyl-2-oleyl-phosphatidylcholine (POPC) and radiolabelled cholesterol are preincubated with equivalent masses either of peptide or ApoA-I (isolated from human plasma). The reaction is initiated by addition of LCAT (purified from human plasma). Native ApoA-I, which was used as positive control, represents 100% activation activity. “Specific activity” (i.e., units of activity (LCAT activation)/unit of mass) of the peptides can be calculated as the concentration of peptide that achieves maximum LCAT activation. For example, a series of concentrations of the peptide (e.g., a limiting dilution) can be assayed to determine the “specific activity” for the peptide—the concentration which achieves maximal LCAT activation (i.e., percentage conversion of cholesterol to cholesterol ester) at a specific timepoint in the assay (e.g., 1 hr.). When plotting percentage conversion of cholesterol at, e.c., 1 hr., against the concentration of peptide used, the “specific activity” can be identified as the concentration of peptide that achieves a plateau on the plotted curve. […]
sequence,measurement,value
EWLEAFYKKVLEKLKELF [peptide 246],ACTIVITY (%) LCAT,less than 4%
